Our source for the Kd values is paper PMC11156954 (2024).

To fix the notation:
B1: Arg40-Arg70 peptide of hMRP5 (peptide)
peptide: RTRPLECQDALETAARAEGLSLDASMHSQLR
B2: Asp5-Ser25 peptide of hMRP5 (peptide)
peptide: DIGKEYIIPSPGYRSVRERTS
B3: Cys46-Ser64 peptide of hMRP5 (peptide)
peptide: CQDALETAARAEGLSLDAS
B4: Asp35-Glu75 peptide of hMRP5 (peptide)
peptide: DSKFRRTRPLECQDALETAARAEGLSLDASMHSQLRILDEE
B5: MRP5 potential peptide inhibitor (M5PI) (peptide)
peptide: CSKFRRTRPLECQDALETAARAEGLSLDASMHSQLRILDEC

The term Kd denotes the free concentration of one partner at which half of the binding sites on the other are occupied at equilibrium, for simple one-to-one binding.

The target in this test is hMRP5-Δ1-94-8xHis (human, UniProt O15440 95-1437, RED-tris-NTA 2nd Generation dye on the His tag). Briefly: MST.
hMRP5-Δ1-94-8xHis, sequence (O15440 95-1437, stated change not applied): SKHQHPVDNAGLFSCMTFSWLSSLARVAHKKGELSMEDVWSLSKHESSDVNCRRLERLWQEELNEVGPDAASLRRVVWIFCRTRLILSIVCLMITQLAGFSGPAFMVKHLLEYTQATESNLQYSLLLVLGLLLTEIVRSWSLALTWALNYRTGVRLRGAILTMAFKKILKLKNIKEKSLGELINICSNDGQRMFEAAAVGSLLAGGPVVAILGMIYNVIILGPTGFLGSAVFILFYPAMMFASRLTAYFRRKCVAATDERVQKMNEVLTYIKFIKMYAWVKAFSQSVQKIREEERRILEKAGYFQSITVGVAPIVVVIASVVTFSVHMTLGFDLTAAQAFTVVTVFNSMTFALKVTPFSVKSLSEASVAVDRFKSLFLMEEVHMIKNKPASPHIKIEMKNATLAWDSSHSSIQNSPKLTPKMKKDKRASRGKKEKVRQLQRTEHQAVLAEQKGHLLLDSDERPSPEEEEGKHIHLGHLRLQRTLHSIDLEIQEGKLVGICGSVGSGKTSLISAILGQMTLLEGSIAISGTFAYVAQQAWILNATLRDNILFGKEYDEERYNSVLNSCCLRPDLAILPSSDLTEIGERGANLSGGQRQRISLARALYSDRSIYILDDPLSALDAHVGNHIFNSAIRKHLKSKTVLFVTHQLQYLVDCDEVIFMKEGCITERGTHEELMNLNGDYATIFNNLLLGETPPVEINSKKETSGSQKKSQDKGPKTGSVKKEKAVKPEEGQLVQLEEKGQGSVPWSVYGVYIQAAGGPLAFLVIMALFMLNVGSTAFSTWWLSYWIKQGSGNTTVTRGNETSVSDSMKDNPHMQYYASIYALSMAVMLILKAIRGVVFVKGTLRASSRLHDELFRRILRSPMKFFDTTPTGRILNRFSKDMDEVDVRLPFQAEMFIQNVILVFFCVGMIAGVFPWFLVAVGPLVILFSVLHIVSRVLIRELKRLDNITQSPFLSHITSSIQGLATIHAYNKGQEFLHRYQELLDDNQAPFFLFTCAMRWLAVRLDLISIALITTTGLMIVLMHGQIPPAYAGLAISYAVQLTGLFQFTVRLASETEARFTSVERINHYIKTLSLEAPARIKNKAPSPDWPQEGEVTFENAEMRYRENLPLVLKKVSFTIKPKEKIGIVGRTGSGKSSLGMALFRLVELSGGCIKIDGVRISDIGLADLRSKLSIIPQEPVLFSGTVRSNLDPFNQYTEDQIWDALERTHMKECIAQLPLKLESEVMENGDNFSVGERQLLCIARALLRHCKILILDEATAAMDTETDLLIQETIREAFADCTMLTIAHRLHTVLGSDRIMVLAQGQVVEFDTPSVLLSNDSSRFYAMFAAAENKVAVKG
In the case of B1, the affinity, expressed as Kd, was 50.7 µM.
To B2 belongs 24.4 µM.
Next, B3: 24.1 µM; B4: 34.6 µM; B5: 2.66 µM.
